Five molecules from patent US20240317873A1 (CITY OF HOPE, published 2024) can be followed below.

The target of test [1] is T1, HVEM (SinoBio, monomeric) (human, UniProt Q92956 39-202).
T1 construct: Bought protein immobilised on a CM5 chip by EDC/NHS coupling; also called hHVEM; TNFRSF14
T1 sequence (looked up): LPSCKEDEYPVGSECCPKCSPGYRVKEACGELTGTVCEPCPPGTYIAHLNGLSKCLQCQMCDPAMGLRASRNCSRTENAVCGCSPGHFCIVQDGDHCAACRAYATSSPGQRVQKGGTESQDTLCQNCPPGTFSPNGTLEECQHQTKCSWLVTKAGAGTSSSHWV
The test is described as follows: SPR; the chip of this figure is not described, the only SPR set-up of the filing is HVEM (SinoBio, monomeric) on CM5. Background: Surface plasmon resonance follows binding to a sensor surface in real time, without labels.

In test [2] the target is T2, HVEM recombinant protein (ELISA-based competition assay) (human, UniProt Q92956 39-202, limits assumed).
T2 construct: The internal control used a biotin-labeled human HVEM; also called recombinant protein of HVEM; biotin-labeled human HVEM
T2 sequence (looked up): T1 sequence (looked up)
The test is described as follows: ELISA-based competition assay with recombinant proteins: binding of biotin-labelled HVEM to recombinant LIGHT (the blocked ligand), antibody titrated. For orientation: An ELISA detects its analyte on a solid surface through an enzyme-linked reagent.

The target of test [3] is T1, HVEM (SinoBio, monomeric). Briefly: SPR, HVEM immobilised on CM5 chip, Fab as analyte, 25 C.
Test [4] deals with T3, human HVEM on the surface of cells (MM.1S myeloma cells, patient myeloma cells, Jurkat cells overexpressing … (human, UniProt Q92956 39-283)).
T3 construct: whole, on cells; also called CD270; TNFRSF14
T3 sequence (looked up): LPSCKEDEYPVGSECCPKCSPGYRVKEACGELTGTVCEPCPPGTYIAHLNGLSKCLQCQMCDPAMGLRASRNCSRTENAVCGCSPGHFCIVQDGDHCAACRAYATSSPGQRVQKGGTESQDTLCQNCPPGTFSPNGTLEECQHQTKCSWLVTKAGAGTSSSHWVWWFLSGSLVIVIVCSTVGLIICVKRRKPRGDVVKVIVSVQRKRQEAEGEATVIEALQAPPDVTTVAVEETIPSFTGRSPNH
The test is described as follows: imaging mass cytometry, 166Er-conjugated antibody, mouse bone marrow engrafted with MM1.S cells. As to the method:
Mass cytometry was performed on mice bone marrow tissues engrafted with MM1.S cells. […] HVEM-4, 5, 13, 17, and 22 were used for staining and the nucleus was counterterstained with Ir-191.

For test [5], the target named is T1, HVEM (SinoBio, monomeric). The test is described as follows: SPR; the chip of this figure is not described, the only SPR set-up of the filing is HVEM (SinoBio, monomeric) on CM5. The source holds these as a separate data set.
The target in test [6] is T3, human HVEM on the surface of cells …. Briefly: imaging mass cytometry, 166Er-conjugated antibody, bone marrow of a multiple myeloma patient. As to the method:
Mass cytometery was performed on bone marrow from a patient with multiple myeloma. […] HVEM-4, 5, 13, 17, and 22 were used for staining and the nucleus was counterterstained with Ir-191.

Test [7] concerns the target T1, HVEM (SinoBio, monomeric). Briefly: SPR; the chip of this figure is not described, the only SPR set-up of the filing is HVEM (SinoBio, monomeric) on CM5. This is another data set of the same source.

Like-named read-outs stand apart in the source and are kept apart here.

B1: HVEM 23Ab (antibody, human IgG1, kappa, V domains shown)
VH: QIQLVQSGPELKKPGETVKISCKASGYTFTNFGMNWVKQAPGKALKWVGWINTYTGEPTYADDFKGRFAFSLETSATTAYLQISNLKNEDTATYFCARSYYFVTSEDYWGQGTSVTVSS
VL: QIVLTQSPAIMSASPGERVTMTCTARSSVSSSYLHWYQQKPGSSPKLWIYSTSNLASGVPARFSGSGSGASYSLTNSSMEAEDAATYYCHQYHRSTWTFGGGTKLEIKR
notes: also called anti-HVEM antibody clone 23
Turning to B1, in test [1], the binding result is given as “no binding (tested: 100 nM)”.

B2: mcHVEM13 IgG (clone 13) (antibody, V domains shown)
VH: QIQLVQSGPELKKPGETVKISCKASGYILTNYGMNWVKQAPGKGLKWMGWINTYTGEPTYADAFKGRFAFSLETSASTAYLQINNLKNEDTATYFCARGYGNHWYFDYWGQGTSVTVSS
VL: QIVLTQSPAILSASPGEKVTMTCSASSSVSYMHWYQRKSGTSPKRWIYDTSKLASGVPARFSGSGSGTSYSLTISSMEAEDAATYYCQQWTSDPLTFGAGTKLELKR
notes: Murine chimeric IgG; The constant region of the tested IgG is not spelled out; Metal-conjugated in mass cytometry; also called anti-HVEM13; aHVEM13
B2: the “IC50 (read off the curve)” value in test [2] is roughly 20 nM.

B3: mcHVEM13 Fab (clone 13) (Fab, V domains shown)
VH: B2 VH
VL: B2 VL
notes: Murine chimeric Fab; also called new mcHVEM13 Fab; anti-hHVEM murine chimeric Fab clone 13
The term Kd denotes the constant that tells how readily two partners part at equilibrium. The low end stands for higher affinity, the high end for lower affinity. Broadly, the koff is the rate constant with which the complex falls apart. Low values mean slow dissociation, high ones fast dissociation. The kon is a measure of how fast the partners come together. High values mean faster complex formation, low ones slower complex formation. In test [3], B3 registered a Kd of 99.6 nM, a koff of 0.138 s⁻¹ and a kon of 1.38e+06 M⁻¹ s⁻¹.

B4: anti-HVEM antibody clone 17 (antibody, human IgG1, kappa, V domains shown)
VH: QIQLVQSGPELKKPGEPVKISCRASGYTLTNFGMNWVKQAPGKGLKWMGWINTYTGEPTYADDFKGRFAFSLETSASTAYLQINNLKNEDTATYFCARSFYGNEHYWGQGTSVTVSS
VL: QIVLTQSPAIMSASPGEKVTLTCSASSSVSSSYLFWYQQKPGSSPKLWIYSTSNLASGVPARFSGHGSGTSYSLTISSMEAEDAASYFCHQWSSYPYTFGGGTKLEIKR
notes: also called HVEM17; HVEM-17
In the case of B4, the binding result in test [4] and in test [5] was “binds” each time.

B5: anti-HVEM antibody clone 22 (antibody, human IgG1, kappa, V domains shown)
VH: QVQLQQSGAELVRPGASVTLSCKTSGYTFIHYEIHWVKQSPVHGLEWIGAIDPETGGTADNQKFKDKVTLTADKSSNTAYMDLRSLTSEDSAVYYCTRGDWVFAYWGQGTLVTVSA
VL: DVVMTQTPLSLPVSLGDQASISCRSSQSPLHSNGNTYLDWYLQKPGQSPKLLIYKVSNRFSGVPDRFSGSGSGTDFTLKISRVEAEDLGIYFCSQTTHVPPTFGGGTKLEIKR
notes: also called HVEM22; HVEM-22
With B5, the binding result in test [6] and in test [7] was “binds” each time.
